Measured values published in PMC10579229 (Nature Communications, 2023).

B1: GII.4 Sydney 2012 P-domain (protruding domain of the capsid protein VP1) (domain or fragment)
chain: ESRTKPFSVPVLTVEEMTNSRFPIPLEKLFTGPSSAFVVQPQNGRCTTDGVLLGTTQLSPVNICTFRGDVTHITGSRNYTMNLASQNWNDYDPTEEIPAPLGTPDFVGKIQGVLTQTTRTDGSTRGHKATVYTGSADFAPKLGRVQFETDTDRDFEANQNTKFTPVGVIQDGGTTHRNEPQQWVLPSYSGRNTHNVHLAPAVAPTFPGEQLLFFRSTMPGCSGYPNMDLDCLLPQEWVQYFYQEAAPAQSDVALLRFVNPDTGRVLFECKLHKSGYVTVAHTGQHDLVIPPNGYFRFDSWVNQFYTLAPMG
modifications: biotin (EZ-Link NHC-LC-LC-biotin), in the BLI only
notes: also called GII.4 P-domain; GII.4 Sydney P-domain; source: E. coli BL21(DE3), purified (His-Trap, TEV cleavage, His-Trap, MBPTrap, SEC); not shown: His6, N-terminal, cleaved; MBP, N-terminal, cleaved
B2: nanobody M4 (VHH)
VHH: QVKLQQSGGGLVQPGGSLRLSCAASESTISINTLGWYRQAPGNQRELVATITTGGTTNYADSVKGRFTISRDNAKNTVYLQMNNLEPGDTAVYYCNLKRRDLQSRFGGYWGQGTQVTVSS

Columns and labels:
[1] = molecular target: the molecule itself; assay: crystal structure; P-domain and M4 mixed 1:1.5, complex peak from S200 gel filtration; crystals at 20 °C in 2% Tacsimate pH 4.0, 0.1 M sodium acetate pH 4.6, 16% PEG 3350; 2.87 Å
[2] = molecular target: capsid protein VP1 of GII.4 New Orleans HuNoV (human norovirus GII.4 (New Orleans))
[3] = molecular target: capsid protein VP1 of GII.4 Den Haag HuNoV (human norovirus GII.4 (Den Haag))

Binder	stoichiometry N [1]	IC50 of neutralisation of GII.4 New Orleans HuNoV (stool filtrate, 100 TCID50) in J4 FUT2 human intestinal enteroid monolayers; viral genome equivalents by RT-qPCR at 24 hpi [2]	IC50 of neutralisation of GII.4 Den Haag HuNoV (stool filtrate, 100 TCID50) in J4 FUT2 human intestinal enteroid monolayers; viral genome equivalents by RT-qPCR at 24 hpi [3]
B1	2	–	–
B2	–	56 ng/mL	379 ng/mL
